Among the data in article doi:10.1101/2024.05.21.594841 (bioRxiv, 2024) are normalized interacting score values, retold here.

Where two headings read alike, the source gives them in different places.

Common to all, as to assay: split reporter
Assay [1] addresses T1, Kar2p (S. cerevisiae, UniProt P16474 43-682).
The next assay addresses T2, Sil1p (S. cerevisiae, UniProt Q08199 20-421).
T2 sequence: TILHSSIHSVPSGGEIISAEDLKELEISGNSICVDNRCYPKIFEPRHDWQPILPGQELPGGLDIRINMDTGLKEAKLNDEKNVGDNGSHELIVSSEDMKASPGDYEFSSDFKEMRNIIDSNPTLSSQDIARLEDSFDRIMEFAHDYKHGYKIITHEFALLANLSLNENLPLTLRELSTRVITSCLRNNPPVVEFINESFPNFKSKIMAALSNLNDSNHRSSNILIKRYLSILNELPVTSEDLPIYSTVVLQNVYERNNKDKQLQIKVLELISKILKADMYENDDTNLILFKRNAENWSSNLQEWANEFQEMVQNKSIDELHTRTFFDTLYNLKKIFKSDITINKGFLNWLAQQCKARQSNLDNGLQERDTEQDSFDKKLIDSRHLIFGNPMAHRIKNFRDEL

Assay [2] deals with T3, Cpr5p (S. cerevisiae, UniProt P35176 23-225).
For assay [3], the target named is T1, Kar2p. This is another data set of the same source.
The next assay addresses T4, Scj1p (S. cerevisiae, UniProt P25303 22-377).
T4 sequence: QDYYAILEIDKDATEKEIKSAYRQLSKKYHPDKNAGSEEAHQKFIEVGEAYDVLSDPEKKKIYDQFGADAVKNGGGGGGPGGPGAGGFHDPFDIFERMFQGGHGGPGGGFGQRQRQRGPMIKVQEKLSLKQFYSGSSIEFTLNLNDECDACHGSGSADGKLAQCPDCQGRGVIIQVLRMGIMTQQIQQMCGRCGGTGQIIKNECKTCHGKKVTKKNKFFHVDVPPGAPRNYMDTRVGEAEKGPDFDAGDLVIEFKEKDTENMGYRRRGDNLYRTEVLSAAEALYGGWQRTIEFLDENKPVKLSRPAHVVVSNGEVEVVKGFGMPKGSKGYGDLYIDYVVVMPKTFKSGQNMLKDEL

The target in a further assay is T5, Lto1p (yeast, UniProt P53846 1-162).
T5 sequence: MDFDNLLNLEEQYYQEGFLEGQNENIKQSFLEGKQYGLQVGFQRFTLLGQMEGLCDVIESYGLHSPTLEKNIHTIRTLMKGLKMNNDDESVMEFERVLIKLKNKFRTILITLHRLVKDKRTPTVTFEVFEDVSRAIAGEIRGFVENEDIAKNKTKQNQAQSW

The target of assay [4] is T3, Cpr5p. This is another data set of the same source.

T3 sequence (P35176 23-225): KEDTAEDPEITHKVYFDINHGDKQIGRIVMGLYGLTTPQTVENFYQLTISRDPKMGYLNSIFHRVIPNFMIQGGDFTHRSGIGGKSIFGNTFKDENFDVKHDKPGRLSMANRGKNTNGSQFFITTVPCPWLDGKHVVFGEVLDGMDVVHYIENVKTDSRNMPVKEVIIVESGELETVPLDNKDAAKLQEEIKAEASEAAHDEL
T1 sequence (P16474 43-682): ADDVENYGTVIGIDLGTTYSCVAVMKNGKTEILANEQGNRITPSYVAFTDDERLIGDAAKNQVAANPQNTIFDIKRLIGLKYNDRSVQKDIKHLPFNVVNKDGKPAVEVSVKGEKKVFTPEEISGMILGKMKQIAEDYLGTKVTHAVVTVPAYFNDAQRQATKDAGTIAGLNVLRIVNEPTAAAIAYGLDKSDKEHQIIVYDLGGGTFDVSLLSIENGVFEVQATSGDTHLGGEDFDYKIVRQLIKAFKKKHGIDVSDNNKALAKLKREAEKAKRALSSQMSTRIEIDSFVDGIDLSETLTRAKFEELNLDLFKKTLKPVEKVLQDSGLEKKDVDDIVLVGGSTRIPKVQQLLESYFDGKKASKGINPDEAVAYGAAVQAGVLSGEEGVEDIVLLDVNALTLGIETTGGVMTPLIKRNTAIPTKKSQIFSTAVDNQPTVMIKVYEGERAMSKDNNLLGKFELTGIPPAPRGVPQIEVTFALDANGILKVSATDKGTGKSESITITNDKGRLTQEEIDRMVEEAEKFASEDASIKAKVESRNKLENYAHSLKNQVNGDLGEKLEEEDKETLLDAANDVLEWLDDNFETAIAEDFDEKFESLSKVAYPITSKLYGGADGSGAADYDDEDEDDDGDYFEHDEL

B1: Sed4p (natural protein)
chain: MSGNSANYDVGYPIYGAKFINEGTLLVAGGGGQFNSSFPNKITALKVNFQKKKHIRRFREITLDSIDDAPTSLDCNNNLILVGCNELFNDSSMENVNHHLRKFVFEQEHLKFVASIDFNRTTDPSVFTKFVYINQRATVAAIASSEVPTVIRIIDPRNLTENYEIETGREVNDLHFAPNGILLSYITSNSLEVASVRDGNFVARKTDFDKNLVLSNIRFLNDNTLLVAASLSNSDGVSLLKLGVSSKGVKILKTASFMFDLNGITSMDVSPNKKFVALSSNDNLVAIVSVEKLKLVQLVPRVHESTITKVTFSPDSRYLASTSMGNTINVLKLSGTSSSILRNIWKFFLNFVLLVVLAGAIQLGYKHNVHGFIYKHAHDIYKSKFKENTTIDQGSSSYFTINDDYRGITESADIISATDVASDIETEFSSFDTSTMRTTTEDEQKFVWISSSADSQFTSADIPTSASSSSSSSSSSFYEESVTNEPIVSSPTSEITKPLASPTEPNIVEKPSLPLNSESIDLLSSSSNSITEYPEPTPDLEEKLSSLIVEQSESEITTDRESVSKLLSTESPSLSHMPSSSSSSLSLSSSLTTSPTTALSTSTATAVTTTQTNPTNDAANTSFLDNSKPASTREIYKTKIITEVITKIEYRNIPASDSNAEAEQYVTTSSSMLLTPTDTMVSSPVSEIDPIASELERMVETPTHSISIASEFDSVASNLIPNEEILSTSASQDSISSHPSTFSDSSITSGFQSIEVSTVTSSVLASESIPSISDSTFSKFHSISEPVSSAIVETATSSFSKTETKTSRVIAFSTEDSERSSALIDNSEYTSVLADNLEPTSVLADNSEPTSVLADSSEPTSVFTDAVQSPKTSVGQSSLSESTNIEGTSMASMIFSSSGASIGALSDIGKGTLSVESASSTVAQPMPGVTTTAPSFVSSPHKISASSIDASGFVQKEIMIEVQSSKDSSEAFGVRHKISENVNTPVSRMLTTEMQASGTVDVTEDVSLSSEVISALNVEITSLPNPVAPPQTIAAPLNNNSNTNIVNDDNAVAGTVNYAGLHDEL
B1 showed a normalized interacting score with Kar2p [1] of 34%.

B2: Sec20p (natural protein)
chain: MVVTFLQDLEVLQDALLNNLQKLSAISRRKESGESKHDNKDSFAAIANEHNDEEEEIEFEDLVNIIESKVSDFESVLKCSIVEMTYKYPELKLQWEKSPRYDQCDKLHIVKLDKQMNEDIYAQLVEELDFVLQFVDWFYCYRLKVKEILRQHHKRDLAWNDEKRDRAIKFHAVDYDKLHQGTSSSSSLTSTSMEKASTREKLLSKTKQLTNNLVRGNQILQSGILQSDLNLDELRAQTNSLTQIDDKYTQFETVFKKTADLVKVLENASHQEKRDVYLSLGFLLCCVSWVLWRRIFKLPVKLGLWLLFKFFKGILVTLGLVKSYAGSSSSLQAPSLVLNAPILATTTTSSATSVEPFASVSAVSSIQRAVDEAVDRIVSHDEL
For the molecule B2, the normalized interacting score in the assay with Sil1p was 32%; with Cpr5p [2] it was 26%; with Kar2p [3], 42%.

B3: Eug1p (natural protein)
chain: TPGSDLLVLTEKKFKSFIESHPLVLVEFFAPWCLHSQILRPHLEEAASILKEHNVPVVQIDCEANSMVCLQQTINTYPTLKIFKNGRIFDGQVYRGVKITDEITQYMIQLYEASVIYLNSEDEIQPYLENATLPVVINRGLTGLNETYQEVALDLAEDYVFLSLLDSEDKSLSIHLPNTTEPILFDGNVDSLVGNSVALTQWLKVVILPYFTDIEPDLFPKYISSNLPLAYFFYTSEEELEDYTDLFTQLGKENRGQINFIALNSTMFPHHVRFLNMREQFPLFAIHNMINNLKYGLPQLPEEEYAKLEKPQPLDRDMIVQLVKDYREGTAKPIVKSEEIPKEQKSNVYKIVGKTHDDIVHDDDKDVLVKYYATWCIHSKRFAPIYEEIANVLASDESVRDKILIAEVDSGANDILSFPVTGYPTIALYPAGNNSKPIIFNKIRNLEDVFEFIKESGTHHIDGQAIYDKLHQAKDSEVSTEDTVHDEL
B3 had a normalized interacting score with Scj1p of 5%.

B4: Yae1p (natural protein)
chain: MSNTWDDVWASDSDVETERSPDLVKLRENHSKRGYLDGIVSSKEEKLQEGFNDGFPTGAKLGKQVGIIMGILLGLRTRFGDEDEDLSKAYIDAQKELRINKVLSKSIFDPNFDLQEKHPLITKWTDIANTYCEKYHVPSIQ
In turn, B4 came in with a normalized interacting score in the assay with Lto1p of 96%.

B5: Pdi1p (natural protein)
chain: PEDSAVVKLATDSFNEYIQSHDLVLAEFFAPWCGHCKNMAPEYVKAAETLVEKNITLAQIDCTENQDLCMEHNIPGFPSLKIFKNSDVNNSIDYEGPRTAEAIVQFMIKQSQPAVAVVADLPAYLANETFVTPVIVQSGKIDADFNATFYSMANKHFNDYDFVSAENADDDFKLSIYLPSAMDEPVVYNGKKADIADADVFEKWLQVEALPYFGEIDGSVFAQYVESGLPLGYLFYNDEEELEEYKPLFTELAKKNRGLMNFVSIDARKFGRHAGNLNMKEQFPLFAIHDMTEDLKYGLPQLSEEAFDELSDKIVLESKAIESLVKDFLKGDASPIVKSQEIFENQDSSVFQLVGKNHDEIVNDPKKDVLVLYYAPWCGHCKRLAPTYQELADTYANATSDVLIAKLDHTENDVRGVVIEGYPTIVLYPGGKKSESVVYQGSRSLDSLFDFIKENGHFDVDGKALYEEAQEKAAEEADADAELADEEDAIHDEL
Turning to B5, the normalized interacting score was found to be 32% with Cpr5p [2] and 18% with Cpr5p [4].
